# Measured values taken from patent US20210395361A1 (Alector, published 2021).
# T1: Histidine-tagged human Siglec-5 (NovoProtein) (human, UniProt O15389 17-434, limits assumed)
# T1 construct: Bought soluble protein; also called His-tagged human Siglec-5; not shown: histidine tag
# T1 sequence: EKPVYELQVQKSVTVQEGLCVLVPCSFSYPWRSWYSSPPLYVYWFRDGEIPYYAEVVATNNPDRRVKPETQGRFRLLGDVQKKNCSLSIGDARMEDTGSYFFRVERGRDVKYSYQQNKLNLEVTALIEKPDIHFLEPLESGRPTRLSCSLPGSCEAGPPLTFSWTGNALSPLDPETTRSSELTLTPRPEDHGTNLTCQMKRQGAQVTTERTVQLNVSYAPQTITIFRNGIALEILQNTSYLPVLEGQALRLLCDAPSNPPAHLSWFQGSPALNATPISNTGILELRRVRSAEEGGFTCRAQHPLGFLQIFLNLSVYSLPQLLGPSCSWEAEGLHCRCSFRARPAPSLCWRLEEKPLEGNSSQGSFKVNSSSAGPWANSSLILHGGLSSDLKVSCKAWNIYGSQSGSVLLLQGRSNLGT
# T2: human Siglec-14 (human, UniProt Q08ET2 17-396)
# T2 construct: also called CHO-S14; CHO-S hSiglec-14
# T2 sequence: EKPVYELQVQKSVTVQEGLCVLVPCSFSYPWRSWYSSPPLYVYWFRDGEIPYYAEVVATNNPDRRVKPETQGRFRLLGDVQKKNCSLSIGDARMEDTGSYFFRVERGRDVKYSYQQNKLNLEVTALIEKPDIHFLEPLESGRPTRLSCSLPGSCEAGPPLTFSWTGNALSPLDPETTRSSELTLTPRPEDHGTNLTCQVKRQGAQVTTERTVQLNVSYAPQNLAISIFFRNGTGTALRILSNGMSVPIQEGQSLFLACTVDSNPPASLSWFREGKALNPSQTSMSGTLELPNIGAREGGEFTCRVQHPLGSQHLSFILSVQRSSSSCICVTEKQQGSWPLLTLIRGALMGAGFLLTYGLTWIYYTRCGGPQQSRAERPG
# T3: human Siglec-5 (human, UniProt O15389 17-551)
# T3 construct: also called CHO-S5; CHO-S hSiglec-5
# T3 sequence: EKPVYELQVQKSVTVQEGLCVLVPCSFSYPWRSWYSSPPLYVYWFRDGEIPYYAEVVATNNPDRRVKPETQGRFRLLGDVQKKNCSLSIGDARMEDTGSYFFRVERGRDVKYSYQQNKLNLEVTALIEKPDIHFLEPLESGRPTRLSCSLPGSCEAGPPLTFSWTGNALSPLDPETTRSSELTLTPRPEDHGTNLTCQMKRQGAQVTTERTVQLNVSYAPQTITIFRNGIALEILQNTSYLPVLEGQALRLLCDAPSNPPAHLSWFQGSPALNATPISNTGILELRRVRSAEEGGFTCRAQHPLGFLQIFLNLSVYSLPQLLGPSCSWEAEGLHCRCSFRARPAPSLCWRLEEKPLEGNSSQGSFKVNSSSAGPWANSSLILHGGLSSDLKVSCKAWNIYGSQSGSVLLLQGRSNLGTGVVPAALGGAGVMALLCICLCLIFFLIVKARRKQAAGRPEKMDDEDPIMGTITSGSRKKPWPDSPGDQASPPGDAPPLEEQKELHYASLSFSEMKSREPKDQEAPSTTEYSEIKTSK
# B1: S5-G-03 (antibody, V domains shown)
# VH: QAYLQQSGGGLVQPGQSLKLSCAASGFTFSTYGMSWVRQTPDKRLELVATINSNGDNTYYPDSVKGRFTISRDNANNTLYLQMSSLKSEDTAMYFCARAWPSITTVFAPYTLDYWGQGTSVTVSS
# VL: DIVLTQSPAIMSASPGEKVTMTCRASSSVSSSFLHWYQQKSGASPKLWIYSTSNLASGVPTRFSGSGSGTSYSLSISSVEAEDTATYFCQQYSGYPLTFGGGTKLEIK
# notes: Mouse-derived variable domains; expressed in mammalian cells as full antibody; hIgG1 isotype control; also called SG-5-03
# B2: S5-G-03-H8 (antibody, V domains shown)
# VH: EVQLLQSGGGLVQPGGSLRLSCAASGFTFSTYGMSWVRQAPGKGLELVATINSNGDNTYYADSVKGRFTISRDNSKNTLYLQMNSLRAEDTAVYYCARAWPSITTVFAPYTLDYWGQGTLVTVSS
# VL: DIQMTQSPSSLSASVGDRVTITCRASSSVSSSFLHWYQQKPGKAPKLWIYSTSNLASGVPSRFSGSGSGTDYTLTISSLQPEDFATYYCQQYSGYPLTFGQGTKLEIK
# notes: Humanized variant of S5-G-03; also called S5-G03-H3L2; SG-5-03-H8
# B3: S5-G-03-H5 (antibody, V domains shown)
# VH: EVQLLESGGGLVQPGGSLRLSCAASGFTFSTYGMSWVRQAPGKGLELVATINSNGDNTYYADSVKGRFTISRDNSKNTLYLQMNSLRAEDTAVYYCARAWPSITTVFAPYTLDYWGQGTLVTVSS
# VL: DIQMTQSPSSLSASVGDRVTITCRASSSVSSSFLHWYQQKPGKAPKLWIYSTSNLASGVPSRFSGSGSGTDYTLTISSLQPEDFATYYCQQYSGYPLTFGQGTKLEIK
# notes: Humanized variant of S5-G-03; also called S5-G03-H2L2; SG-5-03-H5
# B4: S5-G-03-H7 (antibody, V domains shown)
# VH: EVQLLQSGGGLVQPGGSLRLSCAASGFTFSTYGMSWVRQAPGKGLELVATINSNGDNTYYADSVKGRFTISRDNSKNTLYLQMNSLRAEDTAVYYCARAWPSITTVFAPYTLDYWGQGTLVTVSS
# VL: DIQMTQSPSSLSASVGDRVTITCRASSSVSSSFLHWYQQKPGKAPKLLIYSTSNLASGVPSRFSGSGSGTDFTLTISSLQPEDFATYYCQQYSGYPLTFGQGTKLEIK
# notes: Humanized variant of S5-G-03; also called S5-G03-H3L1
# B5: S5-G-03-H4 (antibody, V domains shown)
# VH: EVQLLESGGGLVQPGGSLRLSCAASGFTFSTYGMSWVRQAPGKGLELVATINSNGDNTYYADSVKGRFTISRDNSKNTLYLQMNSLRAEDTAVYYCARAWPSITTVFAPYTLDYWGQGTLVTVSS
# VL: DIQMTQSPSSLSASVGDRVTITCRASSSVSSSFLHWYQQKPGKAPKLLIYSTSNLASGVPSRFSGSGSGTDFTLTISSLQPEDFATYYCQQYSGYPLTFGQGTKLEIK
# notes: Humanized variant of S5-G-03; also called S5-G03-H2L1
# B6: S5-174-H5 (antibody, V domains shown)
# VH: QVQLVQSGAEVKKPGSSVKLSCKASGYTFTNYWMHWVRQAPGQGLEWVGEIDPSDGYVTYAQKFQGRATLTVDKSTSTAYMELSSLRSEDTAVYYCAGVYYGNSIYYAMDYWGQGTLVTVSS
# VL: DIQMTQSPSSLSASVGDRVTITCRASQDVGTAVAWYQQKPGKAPKLLIYWTSTRHTGVPSRFSGSGSGTDFTLTISSLQPEDFATYYCQQYRSYPFTFGQGTKLEIK
# notes: Humanized variant of S5-174; also called S5-174-H3L1
# B7: S5-174-H6 (antibody, V domains shown)
# VH: QVQLVQSGAEVKKPGSSVKLSCKASGYTFTNYWMHWVRQAPGQGLEWVGEIDPSDGYVTYAQKFQGRATLTVDKSTSTAYMELSSLRSEDTAVYYCAGVYYGNSIYYAMDYWGQGTLVTVSS
# VL: DIQMTQSPSSLSTSVGDRVTITCRASQDVGTAVAWYQQKPGKAPKLLIYWTSTRHTGVPSRFSGSGSGTDFTLTISSVQPEDLATYYCQQYRSYPFTFGQGTKLEIK
# notes: Humanized variant of S5-174; also called S5-174-H3L2
# B8: S5-174-H3 (antibody, V domains shown)
# VH: QVQLVQSGAEVKKPGSSVKVSCKASGYTFTNYWMHWVRQAPGQGLEWMGEIDPSDGYVTYAQKFQGRVTITVDKSTSTAYMELSSLRSEDTAVYYCAGVYYGNSIYYAMDYWGQGTLVTVSS
# VL: DIQMTQSPSSLSASVGDRVTITCRASQDVGTAVAWYQQKPGKAPKLLIYWTSTRHTGVPSRFSGSGSGTDFTLTISSLQPEDFATYYCQQYRSYPFTFGQGTKLEIK
# notes: Humanized variant of S5-174; also called S5-174-H2L1
# B9: S5-174-H7 (antibody, V domains shown)
# VH: QVQLVQSGAEVKKPGSSVKLSCKASGYTFTNYWMHWVRQAPGQGLEWVGEIDPSDGYVTYAQKFQGRATLTVDRSTSTAYMELSSLRSEDTAVYYCAGVYYGNSIYYAMDYWGQGTLVTVSS
# VL: DIQMTQSPSSLSASVGDRVTITCRASQDVGTAVAWYQQKPGKAPKLLIYWTSTRHTGVPSRFSGSGSGTDFTLTISSLQPEDFATYYCQQYRSYPFTFGQGTKLEIK
# notes: Humanized variant of S5-174; also called S5-174-H4L1
# B10: S5-174-H8 (antibody, V domains shown)
# VH: QVQLVQSGAEVKKPGSSVKLSCKASGYTFTNYWMHWVRQAPGQGLEWVGEIDPSDGYVTYAQKFQGRATLTVDRSTSTAYMELSSLRSEDTAVYYCAGVYYGNSIYYAMDYWGQGTLVTVSS
# VL: DIQMTQSPSSLSTSVGDRVTITCRASQDVGTAVAWYQQKPGKAPKLLIYWTSTRHTGVPSRFSGSGSGTDFTLTISSVQPEDLATYYCQQYRSYPFTFGQGTKLEIK
# notes: Humanized variant of S5-174; also called S5-174-H4L2
# Columns and labels:
# [1] = target: T1, Histidine-tagged human Siglec-5 …; experiment: array SPR, antibody immobilized, His-tagged human Siglec-5 (0-500 nM) in solution; apparent affinity
# Method: The apparent binding affinities of the anti-Siglec-5 antibodies were measured by array surface plasmon resonance (SPR), according to standard techniques (Abdiche, et al. (2016) MAbs 8:264-277). Briefly, anti-Siglec-5 antibodies were immobilized on a HC 30M chip at four different densities, at antibody concentration of 10 μg/mL, 2.5 μg/mL, 0.63 μg/mL, and 0.16 μg/mL. Varying concentrations (0-500 nM) of Histidine-tagged human Siglec-5 or cynomolgus Siglec-5 (NovoProtein) were then bound to the captured anti-Siglec-5 surface (5 min injection time, 15 min dissociation time) in HBS-EP⁺/1 mg/mL BSA running buffer. Kinetic analysis was performed using Carterra software to extract association and dissociation rate constants (kₐ and kd, respectively) for each antibody. Apparent affinity constants (KD) were calculated from the ratio kd/kₐ. None of the anti-Siglec-5 antibodies bound to cynomolgus Siglec-5 protein.
# human Siglec-14 = target: T2, human Siglec-14; experiment: FACS titration, CHO-S hSiglec-14 cells, anti-human IgG secondary; y-axis Fold over isotype, x-axis Antibody (nM), log scale; the same flat line on CHO-S Parental cells
# Method: (§1) CHO cells were incubated with increasing concentrations of anti-Siglec-5 antibody, as indicated on the x-axis of each plot. The binding of anti-Siglec-5 antibodies to the surface of CHO cells was then measured by FACS. The y-axis provides the binding of each indicated anti-Siglec-5 antibody to the surface of CHO cells relative to hIgG1 isotype control antibodies. S5-174-H2L1 refers to antibody S5-174-H3; S5-174-H3L1 refers to antibody S5-174-H5; S5-174-H3L2 refers to antibody S5-174-H6; S5-174-H4L1 refers to antibody S5-174-H7; S5-174-H4L2 refers to antibody S5-174-H8; S5-G03-H2L1 refers to antibody S5-G-03-H4; S5-G03-H2L2 refers to antibody S5-G-03-H5; S5-G03-H3L1 refers to antibody S5-G-03-H7; S5-G03-H3L2 refers to antibody S5-G-03-H8; and S5-G03-H3L3 refers to antibody S5-G-03-H9.
# (§2) Various anti-Siglec-5 antibodies of the present disclosure were evaluated for their ability to bind to CHO cells which were stably transfected with human Siglec-5 (CHO-S5) or human Siglec-14 (CHO-S14). Cells were incubated with various dilutions of anti-Siglec-5 antibodies for 30 minutes on ice in the dark, followed by a 30-minute incubation with a fluorescently conjugated anti-human IgG secondary antibody. Cells were then washed twice in FACS buffer (PBS+2% FBS, 2 mM EDTA), and flow cytometry was performed on a BD FACS Canto. Data were analyzed using FlowJo software (Ashland, Oreg.). In FIG. 9, hIgG1 refers to isotype control antibodies; S5-174-H2L1 refers to antibody S5-174-H3; S5-174-H3L1 refers to antibody S5-174-H5; S5-174-H3L2 refers to antibody S5-174-H6; S5-174-H4L1 refers to antibody S5-174-H7; S5-174-H4L2 refers to antibody S5-174-H8; S5-G03-H2L1 refers to antibody S5-G-03-H4; S5-G03-H2L2 refers to antibody S5-G-03-H5; S5-G03-H3L1 refers to antibody S5-G-03-H7; S5-G03-H3L2 refers to antibody S5-G-03-H8; and S5-G03-H3L3 refers to antibody S5-G-03-H9.
# human Siglec-5 = target: T3, human Siglec-5; experiment: FACS titration, CHO-S hSiglec-5 cells, anti-human IgG secondary; y-axis Fold over isotype, x-axis Antibody (nM), log scale
# Method: as §1, §2
Binder,Kd [1] [nM],koff [1] [s⁻¹],kon [1] [M⁻¹ s⁻¹],binding result (human Siglec-14),binding result (human Siglec-5)
B1,7.1,0.0001,14000,no binding (tested: last point between 1 and 10 nM),
B2,,,,no binding (tested: last point between 1 and 10 nM),binds
B3,,,,no binding (tested: last point between 1 and 10 nM),binds
B4,,,,no binding (tested: last point between 1 and 10 nM),binds
B5,,,,no binding (tested: last point between 1 and 10 nM),binds
B6,,,,no binding (tested: last point between 1 and 10 nM),binds
B7,,,,no binding (tested: last point between 1 and 10 nM),binds
B8,,,,no binding (tested: last point between 1 and 10 nM),binds
B9,,,,no binding (tested: last point between 1 and 10 nM),binds
B10,,,,no binding (tested: last point between 1 and 10 nM),binds
